Measurements published in paper PMC12102759.

B1: PEX5 peptide 238-253 (Peroxisomal targeting signal 1 receptor), 16-mer library wild type / PEX14 Pex14 (PEX14 PEX14, residues 16-84) (parent)
chain 1: AQAEQWAAEFIQQQGT
chain 2: TPGSENVLPREPLIATAVKFLQNSRVRQSPLATRRAFLKKKGLTDEEIDMAFQQSGTAADEPSSLGPAT
B2: TPTE2 peptide 94-109 (Phosphatidylinositol 3,4,5-trisphosphate 3-phosphatase TPTE2), 16-mer library wild type / TLN1 PTB (TLN1 Phosphotyrosine-binding (PTB) domain, residues 309-401) (parent)
chain 1: DLIFTDSKLYIPLEYR
chain 2: GVSFFLVKEKMKGKNKLVPRLLGITKECVMRVDEKTKEVIQEWNLTNIKRWAASPKSFTLDFGDYQDGYYSVQTTEGEQIAQLIAGYIDIILK

Variants of: B1
Experiment: proteomic peptide phage display deep mutational scan (ProP-PD DMS): M13 P8 16-mer library selected against immobilised GST-tagged bait for four days (rounds), NGS of the eluted pools per day and pseudo-replica
Conditions: with PEX14 Pex14 (PEX14 PEX14, residues 16-84); bait immobilised on MaxiSorp plates (10 µg), library pre-cleared on GST, 2 h binding at 4 °C, five washes; one round per day, days 1-4; value from days 2 and 3; keep out of graded; scale: average fractional NGS count over selection days 2 and 3

Row | Variant | screen value
1 | chain 1 AQAEQWAAEFIQQQGL | 0.000704
2 | chain 1 AQAEQWAAEFIQQQGN | 0.000881
3 | chain 1 AQAEQWAAEFIQQQGD | 0.000181
4 | chain 1 AQAEQWAAEFIQQQGM | 0.000253
5 | chain 1 AQAEQWAAEFIQQQGE | 0
6 | chain 1 AQAEQWAAEFIQQQWT | 0.000703
7 | chain 1 AQAEQWAAEFPQQQGT | 0.00284
8 | chain 1 AQAEQWAAEFSQQQGT | 0.000456
9 | chain 1 AQAEQWLAEFIQQQGT | 0.00129
10 | chain 1 AQAEQWSAEFIQQQGT | 0.00111
11 | chain 1 AQAEQWRAEFIQQQGT | 0.00151
12 | chain 1 AQAEQWYAEFIQQQGT | 0.00359
13 | chain 1 AQAEQWHAEFIQQQGT | 0.00597
14 | chain 1 AQAEQWNAEFIQQQGT | 0
15 | chain 1 AQAEQWFAEFIQQQGT | 0.000286
16 | chain 1 AQAEQWDAEFIQQQGT | 0
17 | chain 1 AQAEQWAADFIQQQGT | 0.00183
18 | chain 1 AQAEQWAASFIQQQGT | 0.000566
19 | chain 1 AQAEQWAAAFIQQQGT | 0.00516
20 | chain 1 AQAEQWAAKFIQQQGT | 0.0012
21 | chain 1 AQAEQWAAEFIQFQGT | 0.000134
22 | chain 1 AQAEQWAAEFIQRQGT | 0.00284
23 | chain 1 AQAEQWAAEFIQAQGT | 0.00172

Row | Variant | screen value
24 | chain 1 AQAEQWAAEFIQSQGT | 0
25 | chain 1 AQAEQWAAEFIQGQGT | 0.000627
26 | chain 1 AQAEQWAAEFIQHQGT | 0
27 | chain 1 AQVEQWAAEFIQQQGT | 0.000366
28 | chain 1 AQYEQWAAEFIQQQGT | 0.000443
29 | chain 1 AQTEQWAAEFIQQQGT | 0.000152
30 | chain 1 AQAEQWAAEFIRQQGT | 0
31 | chain 1 AQAEQWAAEFISQQGT | 0.00055
32 | chain 1 AQAAQWAAEFIQQQGT | 0.000155
33 | chain 1 AQAWQWAAEFIQQQGT | 0.00183
34 | chain 1 AQAEQWAAEFIQQKGT | 0
35 | chain 1 AQAEQWAAEFIQQIGT | 0.00105
36 | chain 1 AQAEQWAAEFIQQDGT | 0.000186
37 | chain 1 AQAEQWAAEFIQQFGT | 0.000215
38 | chain 1 AQAEQWAAEFIQQSGT | 0.00134
39 | chain 1 AQAEQWAFEFIQQQGT | 0.00013
40 | chain 1 AQAEQWALEFIQQQGT | 0.00137
41 | chain 1 AQAEQWAMEFIQQQGT | 0.0014
42 | chain 1 AQAEQWAAEQIQQQGT | 0.000673
43 | chain 1 AQAEQLAAEFIQQQGT | 0
44 | chain 1 AQAEFWAAEFIQQQGT | 0
45 | chain 1 AQAESWAAEFIQQQGT | 0.000207
46 | chain 1 AEAEQWAAEFIQQQGT | 0

The next lines start with the values.

Row | screen value | Variant
47 | 0.00013 | chain 1 AQAEQWAAEFIQQQGW
48 | 0.000218 | chain 1 AQAEQWAAEFIQQQGA
49 | 0 | chain 1 AQAEQWAAEFVQQQGT
50 | 0.000266 | chain 1 AQAEQWAAEFKQQQGT
51 | 0.00192 | chain 1 AQAEQWAAEFEQQQGT
52 | 0.00263 | chain 1 AQAEQWAAEFDQQQGT
53 | 0.000717 | chain 1 AQAEQWAAEFYQQQGT
54 | 0.000152 | chain 1 AQAEQWIAEFIQQQGT
55 | 0.000215 | chain 1 AQAEQWAAMFIQQQGT
56 | 0.00204 | chain 1 AQAEQWAATFIQQQGT
57 | 0.000183 | chain 1 AQAEQWAAEFIQDQGT
58 | 0.000454 | chain 1 AQAEQWAAEFIQMQGT
59 | 0.000241 | chain 1 AQDEQWAAEFIQQQGT
60 | 0 | chain 1 AQIEQWAAEFIQQQGT
61 | 0.00244 | chain 1 AQNEQWAAEFIQQQGT
62 | 0.000674 | chain 1 AQMEQWAAEFIQQQGT
63 | 0 | chain 1 AQLEQWAAEFIQQQGT

Row | screen value | Variant
64 | 0.000385 | chain 1 AQEEQWAAEFIQQQGT
65 | 0 | chain 1 AQWEQWAAEFIQQQGT
66 | 0.00226 | chain 1 AQAEQWAAEFIMQQGT
67 | 0.000147 | chain 1 AQAEQWAAEFIFQQGT
68 | 0.00104 | chain 1 AQAKQWAAEFIQQQGT
69 | 0.00183 | chain 1 AQAGQWAAEFIQQQGT
70 | 0 | chain 1 AQAVQWAAEFIQQQGT
71 | 0 | chain 1 AQAEQWAAEFIQQTGT
72 | 0.00148 | chain 1 AQAEQWAWEFIQQQGT
73 | 0.00013 | chain 1 AQAEQWAQEFIQQQGT
74 | 0.00148 | chain 1 AQAEQWAAEWIQQQGT
75 | 9.07e-05 | chain 1 AQAENWAAEFIQQQGT
76 | 0.000302 | chain 1 AQAEHWAAEFIQQQGT
77 | 0.00028 | chain 1 AQAETWAAEFIQQQGT
78 | 0.000198 | chain 1 ATAEQWAAEFIQQQGT
79 | 7.71e-05 | chain 1 ANAEQWAAEFIQQQGT
80 | 0.00113 | chain 1 APAEQWAAEFIQQQGT

Variants of: B2
Experiment: as above
Conditions: with TLN1 PTB (TLN1 Phosphotyrosine-binding (PTB) domain, residues 309-401); bait immobilised on MaxiSorp plates (10 µg), library pre-cleared on GST, 2 h binding at 4 °C, five washes; one round per day, days 1-4; value from days 2 and 3; keep out of graded; scale: average fractional NGS count over selection days 2 and 3

Row | Variant | screen value
81 | chain 1 DLIFTDSKLYMPLEYR | 3.76e-05
82 | chain 1 DLIFTDSKLYTPLEYR | 0.000474
83 | chain 1 DLIFTDSKLYQPLEYR | 7.15e-05
84 | chain 1 DLIFTDSKLYHPLEYR | 0.000432
85 | chain 1 DLIFTDSKLYEPLEYR | 0.000129
86 | chain 1 DLIFTDSKLYDPLEYR | 2.74e-05
87 | chain 1 DLIFTDSKLYNPLEYR | 7.83e-05
88 | chain 1 DLIFTDSKLYLPLEYR | 0.00308

Results, then the variant that gave them:

Row | screen value | Variant
89 | 3.45e-05 | chain 1 DLIFTDSKLYKPLEYR
90 | 6.22e-05 | chain 1 DLIFTDSKLYFPLEYR
91 | 5.14e-05 | chain 1 DLIFTDSKLYYPLEYR
92 | 7.21e-05 | chain 1 DLIFTDSKLYSPLEYR
93 | 0.0012 | chain 1 DLIFTDSKLYVPLEYR
94 | 0.000323 | chain 1 DLIFTDSKLYRPLEYR
